Patent US20210095018A1 (BIOLEGEND, published 2021)

Biological target: T1, human Tetraspanin 33 (TSPAN33) (human, UniProt Q86UF1 1-283)
T1 sequence: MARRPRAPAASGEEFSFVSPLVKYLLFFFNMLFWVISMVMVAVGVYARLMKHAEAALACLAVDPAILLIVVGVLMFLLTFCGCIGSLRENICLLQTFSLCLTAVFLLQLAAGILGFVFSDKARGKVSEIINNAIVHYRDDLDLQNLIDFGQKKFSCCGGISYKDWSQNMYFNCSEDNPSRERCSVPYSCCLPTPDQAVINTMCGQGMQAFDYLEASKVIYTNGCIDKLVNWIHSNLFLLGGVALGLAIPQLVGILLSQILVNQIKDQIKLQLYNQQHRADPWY
Experiment: flow cytometry on human PBMCs activated with CD40L and IL-4; detection with anti-mouse IgG PE
Method: Human peripheral blood mononuclear cells (PBMCs) were isolated in aseptic conditions through a gradient of Ficoll-Paque PLUS (GE Healthcare) according manufacturer instructions. The PBMCs were counted and adjusted in complete RPMI-1640 (10% fetal bovine serum, […] Penicillin, and 1 mg/ml Streptomycin) to a cell density of 1×10⁶ cells/mL. Cells were activated by adding CD40L (TNFSF5; 1 μg/mL) and recombinant human IL-4 (100 U/mL) to the culture. The cells were incubated overnight at 37° C. with 5% CO₂.
The next day the cells were washed with Biolegend's Cell Staining Buffer, and 1×10⁶ cells were stained for 15 minutes in the dark with anti-human CD20-APC and purified anti-human TSPAN33 or purified mouse IgG2b, k isotype control, in a volume of 100 μL. Cells were washed twice with 3 mL of Cell Staining Buffer and then stained for 15 minutes in the dark with anti-mouse IgG PE, in a volume of 100 μL. Then the cells were washed twice with 3 mL of Cell Staining Buffer and analyzed on a flow cytometer. 7-AAD Viability Staining Solution was used to exclude dead cells from analysis.

B1: AB1, mouse anti-TSPAN33 monoclonal antibody (antibody, V domains shown)
VH: EVKLVESGGGLVQPGGSLSLSCAASGFTFTDYYMTWVRQPPGKALEWLVFIRNKANGYTTEYSASVKGRFTISRDNSQSILYLQMNALRAEDSATYYCARYLQTGNFDYWGQGTTLTVSS
VL: EIQMIQTTSSLTASLGDRVTISCRASQDISNFLNWYQQKPDGTIKLLIYFTSRLHSGVPSRFSGSGSGTDYSLTISNLEQEDIATYFCQQGYTVPPTFGGGTKLEIK
notes: Murine monoclonal antibody from a hybridoma; also called AB (clone) Number 1
  binding result: binds
